From the RNAGym collection of RNA variant scans (doi:10.1073/pnas.2313332121)
Variants at the floor of the assay were thinned out.

B1: TPR 5TU (parent)
chain: GGAUCUUCUCGAUCUAACAAAAAAGACAAAUCUGCCACAAAGCUUGAGAGCAUCUUCGGAUGCAGAGGCGGCAGCCUUCGGUGGCGCGAUAGCGCCAACGUUCUCAACUAUGACACGCAAAACGCGUGCUCCGUUGAAUGGAGUUUAUCAUG

Variants of: B1
Assay: polymerase ribozyme fitness, log enrichment relative to wild type (log ratio); higher = more active; in vitro selection for triplet polymerase activity
Method in brief: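 The heterodimeric triplet polymerase ribozyme's subunits were each mutagenized into PCR-built libraries and transcribed. Every library was selected once, in triplicate, by annealing with a biotinylated primer, the partner subunit and triplets, incubating frozen at −7 °C, gel-excising extended constructs, capturing on streptavidin beads and running RT-PCR. Input and output libraries were Illumina-sequenced, with genotypes kept only at ≥10 input reads and ≥1 read per output. Fitness, from inverse-variance-weighted replicate averages, is the base-2 logarithm of genotype enrichment over wild-type enrichment.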

Variant	polymerase ribozyme fitness (log ratio)
GGAUCUUCUCGAUCUAACAAAAAAGACAAAUCUGCCACAAAACUUGAGAGCAUCUUCGGAUGCAGAGGCGGCAGCCUUCGGUGGCGCGAUAGCGCCAACGUUCUCAACUAUGACACGCAAAACGCGUGCUCCGUUGAAUGGAGUUUACCAUG [G42A U148C]	≤ -4.2
GGAUCUUCUCGAUCUAACAAAAAAGACAAAUCUGCCACAAAGCUUGUGAGCAUUUUCGGAUGCAGAGGCGGCAGCCUUCGGUGGCGCGAUAGCGCCAACGUUCUCAACUAUGAUACGCAAAACGCGUGCUCCGUUGAAUGGAGUUUAUCAUG [A47U C54U C114U]	-2.94
GGAUCUUCUCGAUCUAACAAAAAAGACAUAUCUGCCACAAAGCUGGAGAGCAUCUUCGGAUGCAGAGGCGGCAGCCUUCGGUGGCCCGAUAGCGCCAACGUUCUCAACUAUGACACGCAAAACGCGUGCUCCGUUGAAUGGAGUUUAACAUG [A29U U45G G86C U148A]	≤ -4.2
GGAUCUUCUCGAUCUAUCAAAAAAGACAAAUCUGCCACAAAGCUUGAGAGCAUCUUCGGAUGCAGAGGCGGCAGCCUUCGGUGGCGCGAUAGCGCCAACGUUCUCAACUAUGACACGCAAAACGCGUGCUCCGUUGAAUGGAGUUCAUCAUG [A17U U146C]	-0.884
GGAGCUUCUCGAUCUAACAAAAAAGACAAAUCUGCCCCAAAGCUUGAGAGCAUCUUCGGAUGCAGAGGCGGCAGCCUUCGGUGGCGUGAUAGCGCCAACGUUCUCAACUAUGACACGCAAAGCGAGUGCUCCGUUGAAUGGAGUUUAUCAUG [U4G A37C C87U A122G C125A]	-3.07
GGAUCUUCUCGAUCUAACAAAAAAGACAAAUCUGCCACAAAGCUUGAGAGCAUCUUCGGAUGCAGAGGCGGCAGCCUUCGGUGGCGCGAUAGCGCCAACGUUCUCAACUAUGACACGCAAAACGCGUGAUCCGUUGAAUGGAGUUUAUCAUG [C129A]	-2.46
GGAUCUUCUCGAUCUAACAAAAAAGACAAAUCUGCCACAAAGCUUGAGAGCAUCUACGGAUGCAGCGGCGGUAGCCUUCGGUGGCGCGAUAAUGACAACGUUCUCAACUAUGACAAGCAAAACGCGUGCUCCGUUGAAUGGAGUUUAUCAUG [U56A A66C C72U G92A C93U C95A C116A]	≤ -4.2
GGAUCUUCUCGAUGUAACAAAAAAGACAAAUCUGCCACAAAGCUUGAGAGUAUCUUCGGAUGCAGAGGCGGCAGCCUUCGGUGGCGCGAUAGCGCUAACGUUCUCAACUAUGACACGCAAAACGCGUGCUCCGUUGAAUGGAGUUUAUCAUG [C14G C51U C96U]	-3.1
GGAUCUUCUCGAUCUAACAAAAAAGACAAAUCUGCCACAAAGCUUGAGAGCAUCUUCGGAUGCAGAGGCAGCACCCUUCGGUGGCGCGAUAGCGCCAACGUUCUCAACUAUGACACGCAAAACGGGUGCUCCGUUGAAUGGAGGUUAUCAUG [G70A G74C C125G U144G]	≤ -4.2
GGAUCUUCUCGAUCUAACAAAAAAGACAAAUCUGCCAGAAAGCUUGAGAGCGUCUUCGGAUACAGAGGCGGCAGCCUUCGGUGGCGCGAUAGCGCCAACGUUCUCAACUAUGACACGCAAAACGCGUGCUCCGUGGAAUGGAGUUUAUCAUG [C38G A52G G62A U135G]	≤ -4.2
GGAUCUUCUCGAUCUAACAAAAAAGACAAAUCUGCCAUAAAGCUUGAGAGCAUCUUAGGAUGUAGAGGCGGCAGCCUUCGGUGGCGCGAUAGCGUCAUGGUUCUCAACUAUGACACGCAAAACGCGUGCUCCGUUGAAUGGAGUUUAUCAUG [C38U C57A C63U C95U A98U C99G]	-1.54
GGAUCUUCUCGAUCUAACAAAAAAGACAAAUCUGCCACAAAGCUUGAGUGCAUCUUCGGAUGCAGAGGCGGCAGCCUUCGGUGGCGCGUUAGCGCCAACGUUCUCAACUAUGACACGCAAAACGCGUGCUCUGUUGAAUGGAGUUUAUCAUG [A49U A89U C132U]	-2.65
GGAUCUUCUCGAUCUAACAAAAAAGACAAUUCUGCCACAAAGCUUGAGAGCAUCUUCGGCUACAGAGGCGGCAGCAUUCGGUGGCGCGAUAGCGCGAACGUUCUCAACUAUGACACGCAAAACGCGGGCUCCGUUGAAUGGACUUUAUCAUG [A30U A60C G62A C76A C96G U127G G143C]	≤ -4.2
GGAUCUUCUCGAUCUAACAAAAAAGACAAAUCUGCCACAAAGCUUGAGAGCAUCUUCGGAUGAAGAGGCGGCAGCGUUCGGUGGUGCGAUAGCGCUGACGUUCUCAACUAUGACAGGCAAAACGCGUGCUCCGUUGAAUGGAGUUUAUCAUG [C63A C76G C85U C96U A97G C116G]	≤ -4.2
GGAUCUUCUCGAUCUAACAAAAAAGACAAAUCUGCCACAAAGCUUGAGAACAUCUUCGGAUGCAGAGGCGGCAGCCUUCGGUGGCGCGAUAGCGCCAACGUACUCAACUAUGACACGCAAAACGCGUGCUCCGUUGAAUGGAGUUUAUCAUG [G50A U102A]	-3.08
GGAUCUUCUCGAUCUAACAAAAAAGACAAAUCUGCUACAAAACUUGAGAGCAUCUUCGGAUGCAGAGGCGGCAGCUUUCGGUGGCGCGAUAGCGCCAACGUUCUCAACUAUGACACGCAAAACGCGUGCUCCGUUGAAUGGAAUUUAUCAUG [C36U G42A C76U G143A]	≤ -4.2
GGAUCUUCUCGAUCGAACAAAAAAGACAAAUCUGCCACAAAGCUUGAGAGCAUCUUCGGAUGCAGAGGCGGCAGCCUUCGGUGGCGCGAUAGAGCCAACGUUCUCAACCAUGACACGCAAAACGCGUGCUCCGUUGAAUGGAGUUUAUCAUG [U15G C93A U109C]	≤ -4.2
GGAUCUUCUCGAUCUAACAAUAAAGACAAAUCUGCCACAAAGCUUGAGAGCAUCAUCGGAUGCAGAGGCGGCAGCCUUCGGUGGUGCGAUAGCGCCAACGUUCUCAACUAUGACACGCAAAACGCGUGCUCCGUUGAAUGGAGUUUAACAUG [A21U U55A C85U U148A]	-4.07
GGAUCUUCUCGAUCUAACAAAAAAGACAAAUCUGCCACAAAGCUUGAGAGCAUCUUCGGAUGCAGAGGCGGCAGCCUUCGGUGGCGCGAUAGCCCCAACGUUCUCAACUAUGACACGCAAAACGCAUGCUCAGUUGAAUGGAGUUUAUCAUG [G94C G126A C132A]	-2.93
